From publication PMC10878513, “SRPK2 Mediates HBV Core Protein Phosphorylation and Capsid Assembly via Docking Interaction” (PLOS Pathogens, 2024) come the findings set out here.

Substitutions are numbered along the chain they refer to. Names may count otherwise.

Data set [1] concerns the molecule itself. The data set can be described thus: SEC; without ATP; proteins in disassembly buffer (1.5 M GuHCl), GuHCl removed by dialysis against reassembly buffer; analytical Superdex 200 10/300 GL; peak fractions by SDS-PAGE.
Data set [2] deals with the molecule itself. Put plainly: SEC; SRPK2ΔS1/CpWT complex supplemented with 5 mM MgCl2 and 0.1 mM ATP; analytical Superdex 200 10/300 GL; void-volume peak also imaged by negative-stain EM. On the technique in general: In gel filtration, larger molecules generally elute earlier.
The target in another data set is T1, His-tagged SRPK1WT (UniProt Q96SB4 1-655).
T1 construct: serine-arginine protein kinase 1 (SRPK1), wild type; Labelled on the His tag with RED-tris-NTA for MST; also called wild-type SRPK1; source: recombinant, purified; not shown: His tag, N-terminal, kept
The data set can be described thus: MST; 200 nM N-terminally His-tagged SRPK1/2 labelled with RED-tris-NTA as target; GST-CpY132A as ligand in 2-fold serial dilution from 20 μM to 0.61 nM; room temperature; Monolith NT.115, MST power 40%. Conditions: both partners purified.

In data set [3] the target is T2, His-tagged SRPK2WT (full-length SRPK2) (UniProt P78362 1-688).
T2 construct: serine-arginine protein kinase 2 (SRPK2), full length, wild type; Cloned in pET-15b; Labelled on the His tag with RED-tris-NTA for MST; also called His-SRPK2WT; wild-type SRPK2; source: E. coli BL21(DE3)pLysS, purified (Ni-NTA, SEC); not shown: His tag, N-terminal, kept
Described as above. Conditions: both partners purified.

T2 sequence (P78362 whole entry): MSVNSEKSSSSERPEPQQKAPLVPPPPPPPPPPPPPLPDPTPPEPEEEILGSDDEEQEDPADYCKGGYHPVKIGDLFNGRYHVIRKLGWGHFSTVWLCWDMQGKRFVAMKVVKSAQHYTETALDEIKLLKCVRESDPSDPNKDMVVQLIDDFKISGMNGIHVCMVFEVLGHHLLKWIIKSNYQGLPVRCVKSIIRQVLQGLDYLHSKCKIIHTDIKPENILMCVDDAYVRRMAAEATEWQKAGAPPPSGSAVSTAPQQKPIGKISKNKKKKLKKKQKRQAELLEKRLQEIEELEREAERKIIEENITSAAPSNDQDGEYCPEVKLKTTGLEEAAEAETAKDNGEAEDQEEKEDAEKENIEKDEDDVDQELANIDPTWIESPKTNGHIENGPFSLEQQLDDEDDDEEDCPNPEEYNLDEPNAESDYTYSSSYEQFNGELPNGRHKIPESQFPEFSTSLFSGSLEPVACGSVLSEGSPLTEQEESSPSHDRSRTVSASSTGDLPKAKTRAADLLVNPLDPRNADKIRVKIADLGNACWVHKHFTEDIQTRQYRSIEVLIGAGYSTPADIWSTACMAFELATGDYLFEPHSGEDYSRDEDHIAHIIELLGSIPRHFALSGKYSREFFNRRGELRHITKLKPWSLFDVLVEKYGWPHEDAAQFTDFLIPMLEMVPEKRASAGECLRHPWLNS
T1 sequence (Q96SB4 whole entry): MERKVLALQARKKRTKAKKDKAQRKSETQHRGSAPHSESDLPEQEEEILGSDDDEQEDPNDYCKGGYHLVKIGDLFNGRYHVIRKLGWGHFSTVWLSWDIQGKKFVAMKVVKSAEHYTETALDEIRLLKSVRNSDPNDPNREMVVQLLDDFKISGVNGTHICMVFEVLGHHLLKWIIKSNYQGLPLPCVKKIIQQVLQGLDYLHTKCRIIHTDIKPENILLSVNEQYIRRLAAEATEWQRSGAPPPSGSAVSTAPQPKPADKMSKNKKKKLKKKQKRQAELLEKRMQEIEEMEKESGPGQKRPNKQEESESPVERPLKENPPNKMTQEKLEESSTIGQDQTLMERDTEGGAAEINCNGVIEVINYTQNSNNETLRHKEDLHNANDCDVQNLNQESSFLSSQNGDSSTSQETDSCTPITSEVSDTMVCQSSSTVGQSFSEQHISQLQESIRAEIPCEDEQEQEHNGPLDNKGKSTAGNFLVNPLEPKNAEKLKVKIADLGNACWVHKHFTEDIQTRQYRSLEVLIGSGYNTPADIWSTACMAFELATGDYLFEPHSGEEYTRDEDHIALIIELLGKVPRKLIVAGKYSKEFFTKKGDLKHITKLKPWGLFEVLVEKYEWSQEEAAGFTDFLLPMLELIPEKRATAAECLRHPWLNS

B1: His-tagged CpWT (wild-type hepatitis B core protein) (natural protein)
chain: MDIDPYKEFGATVELLSFLPSDFFPSVRDLLDTASALYREALESPEHCSPHHTALRQAILCWGELMTLATWVGNNLEDPASRDLVVNYVNTNVGLKIRQLLWFHISCLTFGRETVLEYLVSFGVWIRTPPAYRPPNAPILSTLPETTVVRRRDRGRSPRRRTPSPRRRRSPSPRRRRSQSRESQC
notes: Hepatitis B virus core protein (Cp), subtype adw2, full length, wild type; Kept as a dimer in GuHCl; assembles into capsids (about 35 nm, typical of T = 4) when GuHCl or urea is dialysed away; The His tag is seen as extra density at the 3-fold vertices of the capsid maps; Cloned in pET-15b; also called His-CpWT; CpWT dimer; not shown: His tag, N-terminal, kept
Turning to B1, in data set [1], the binding result was “binds”.

B2: CpWT phosphorylated by SRPK2ΔS1 (after addition of ATP/Mg2+) (natural protein)
chain: B1 chain
modifications: phosphorylated by SRPK2ΔS1 with ATP/Mg2+; sites and extent not stated for this sample
notes: Hepatitis B virus core protein (Cp), subtype adw2, full length, wild type; also called phosphorylated Cp; capsid formed after the addition of ATP/Mg2+; source: E. coli BL21(DE3)pLysS, purified; SRPK2ΔS1/CpWT complex supplemented with 5 mM MgCl2 and 0.1 mM ATP
Consider B2, for which, in data set [2], the binding result is reported as “binds”.

B3: GST-tagged CpY132A (hepatitis B core protein with the mutation Y132A) (natural protein)
chain: B1 chain with Y132A
notes: Hepatitis B virus core protein (Cp), subtype adw2, full length (assembly domain 1-149, ARD 150-185); Cloned in pGEX-4T-2; also called GST–CpY132A; GST-CpY132A; source: E. coli BL21(DE3)pLysS, purified (glutathione resin); not shown: GST, N-terminal, kept
As a reminder, the Kd is the equilibrium constant for the complex coming apart. Read a high Kd as a looser complex. With B3, the results for the dissociation constant Kd (in the data set with His-tagged SRPK1WT; in data set [3]) were 83.6 nM and 101 nM, respectively.
